Measurements: paper PMC4056191

Target: H3.3 G90M (pCDH, transfected) (human) (UniProt P84243)
Experiment: co-IP

DAXX found with transfected H3 in 293T cells, sequence (Q9UER7 whole entry): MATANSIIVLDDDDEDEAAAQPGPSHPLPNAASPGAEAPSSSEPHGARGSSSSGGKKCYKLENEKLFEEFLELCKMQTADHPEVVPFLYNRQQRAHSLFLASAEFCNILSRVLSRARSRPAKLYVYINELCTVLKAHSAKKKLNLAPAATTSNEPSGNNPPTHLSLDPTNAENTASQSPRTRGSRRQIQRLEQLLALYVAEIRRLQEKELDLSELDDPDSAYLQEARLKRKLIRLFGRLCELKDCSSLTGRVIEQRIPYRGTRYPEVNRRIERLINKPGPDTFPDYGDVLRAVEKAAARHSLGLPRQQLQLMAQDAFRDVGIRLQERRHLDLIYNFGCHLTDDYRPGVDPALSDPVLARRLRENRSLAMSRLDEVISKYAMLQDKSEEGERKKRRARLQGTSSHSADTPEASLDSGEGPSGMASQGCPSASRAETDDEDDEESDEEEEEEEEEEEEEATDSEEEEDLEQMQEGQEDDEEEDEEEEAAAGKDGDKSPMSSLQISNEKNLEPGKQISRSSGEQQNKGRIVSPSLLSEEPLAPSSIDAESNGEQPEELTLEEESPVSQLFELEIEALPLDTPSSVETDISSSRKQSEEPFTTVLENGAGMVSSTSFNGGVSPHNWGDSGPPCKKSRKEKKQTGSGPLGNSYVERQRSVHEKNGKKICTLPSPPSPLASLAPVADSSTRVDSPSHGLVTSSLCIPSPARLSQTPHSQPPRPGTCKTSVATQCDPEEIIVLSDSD

reduction of DAXX binding against wild-type H3.3: 50%
Substance: DAXX found with transfected H3 in 293T cells (from UniProt Q9UER7 1-740) (natural protein)
